Experimental data reported in patent publication US20130196377A1 (SAMSUNG ELECTRONICS, published 2013).

Molecular target: T1, human EGFR extracellular domain (Prospec) (human, UniProt P00533 25-645)
T1 construct: extracellular domain; Bought protein; also called epidermal growth factor receptor
Experiment: SPR (Biacore T100); antibody captured on anti-human IgG CM5 chip, EGFR extracellular domain 6.25-100 nM as analyte; 1:1 Langmuir model
Description: 1× HBS-EP (GE healthcare) was used as a running buffer and a dilution buffer. About 5,000 RU (response unit) of an Anti-human IgG antibody (Jackson Immuno Research) were immobilized on a surface of a CM5 chip (GE healthcare) by standard amine-coupling. […] A contact time (association phase) was 180 seconds, and a separation time (washing with running buffer) was 600 seconds. After each binding cycle was terminated, Glycine-HCl pH 2.0 (GE healthcare) as a regeneration solution was flown onto the chip at a flow rate of 50 μL/min for 1 minute to remove the combined antigen and antibody from the chip. A sensorgram was obtained therefrom such that a fitting process was performed in BIA evaluation software by using a 1:1 Langmuir binding model for the EGFR case and by using a bivalent analyte model for the VEGF case.

B1: (E2)2, monospecific antibody recognizing the EGFR (antibody, human IgG1, V domains shown)
VL: DIQMTQSPTSLSASVGDRVTITCRASQWIGNLLDWYQQKPGEAPKLLIYYASFLQSGVPSRFSGGGFGTDFTLTISSLQPEDFATYYCQQANPAPLTFGQGTKVEIKR
notes: Homodimer of E2-hinge-Fc chains, inferred from the label (E2)2
  Kd: 4.91 nM
